From patent US20190144565A1 (UCB, published 2019)

T1: sFcεRIα, the extracellular portion of the alpha chain of the human high affinity IgE receptor (human, UniProt P12319 26-205)
T1 construct: extracellular domain; also called sFcERIa; Alexa488 labelled sFcεRIα
T1 sequence (looked up): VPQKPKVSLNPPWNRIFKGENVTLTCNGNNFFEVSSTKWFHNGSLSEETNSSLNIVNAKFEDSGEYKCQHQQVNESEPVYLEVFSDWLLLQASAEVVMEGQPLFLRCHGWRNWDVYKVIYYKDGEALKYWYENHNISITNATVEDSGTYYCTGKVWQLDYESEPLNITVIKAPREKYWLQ

B1: IgE-Fc according to Seq. ID No. 108 (V224-K547) with the mutations N265Q & N371Q (other)
chain: VASRDFTPPTVKILQSSCDGGGHFPPTIQLLCLVSGYTPGTIQITWLEDGQVMDVDLSTASTTQEGELASTQSELTLSQKHWLSDRTYTCQVTYQGHTFEDSTKKCADSNPRGVSAYLSRPSPFDLFIRKSPTITCLVVDLAPSKGTVQLTWSRASGKPVNHSTRKEEKQRNGTLTVTSTLPVGTRDWIEGETYQCRVTHPHLPRALMRSTTKTSGPRAAPEVYAFATPEWPGSRDKRTLACLIQNFMPEDISVQWLHNEVQLPDARHSTTQPRKTKGSGFFVFSRLEVTRAEWEQKDEFICRAVHEAASPSQTVQRAVSVNPGK
notes: also called IgE-Fc (N265Q, N371Q); terbium labeled IgE-Fc
B2: sFcεRIα-IgG4-Fc fusion protein (α-γ) (Fc fusion, UniProt P12319 26-205, looked up)
chain: T1 sequence (looked up)
notes: extracellular domain; also called αγ-fusion protein; Alexa Fluor 647 labeled sFcεRIα-IgG4-Fc; not shown: IgG4 Fc

Tests used:
[1] = molecular target: T1, sFcεRIα, the extracellular portion of …; experiment: SPR; IgE-Fc captured on immobilised sFcεRIα
[2] = molecular target: B2; experiment: TR-FRET; labelled αγ-fusion protein titrated on labelled IgE-Fc, no omalizumab Fab3
[3] = molecular target: B1; experiment: as above

binding result [1] | binding result [2] | EC50 (read off the curve) [3] | Binder
binds | binds |  | B1
 |  | ~1 nM | B2
